Experimental data reported in the nanobody polyreactivity screen of Harvey et al. (2022).

Assay: yeast display, Sf9 membrane polyspecificity reagent, FACS + sequencing; frameworks hold sequencing errors
Summary of the method: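 In a synthetic yeast display library (Saccharomyces cerevisiae BJ5465), nanobody expression was induced with galactose for 36–48 hours. FACS gates were set low and high (top ~1%) using anti-HA fluorescence for expression and streptavidin fluorescence for binding of the Sf9 membrane reagent. Each polyreactivity label is drawn from the gate of origin.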

| Sequence | polyreactivity (PSR sort gate) |
| --- | --- |
| QVQLVESGGGLVQAGGSLRLSCAASGSTFYTNAMGWSRQAPGKERELVASIDRGGGSTYYAESVKGRFTISRDNAKNTVYLQMNSLKPEDTAVYYCAASFDGRYWGYYYWGQGTKVTVSS | low polyreactivity |
| QVQLVESGGGLVQAGGSLRLSCAASGSTFYTNAMGWSRQAPGTERELVAAISGSGGSTYYADSVKGRFTISRDNAKNTVYVQMNSLKPEDTAVYYCAARSRYYYTRFDYWGQGTQVTVSS | low polyreactivity |
| QVQLVESGGGLVQAGGSLRLSCAASGSTFYTNAMGWYIQAPGKERELVAAISRGGITYYADSVKGRFTISRDNAKNTVYLQMNSLKPEDTAVYYCNTQIVTEYDYWGQDTQVTVSS | low polyreactivity |
| QVQLVESGGGLVQAGGSLRLSCAASGSTFYTNAMGWYRPAPGKERELVAAISASVGSTYYADSVKGRFTISRDNAKNTVYLQMNSLKPEDTAVYYCAADVWASRRYDYWGQGTQVTVSS | low polyreactivity |
| QVQLVESGGGLVQAGGSLRLSCAASGSTFYTNAMGWYRQAPGKERELVAAISASVGSTYYADSVKGRFTISRDNAKNTVYLQMNSLKPEDTAVYNCAADVWASRRYDYWGQGTQVTLSS | low polyreactivity |
| QVQLVESGGGLVQAGGSLRLSCAASGSTFYTNAMGWYRQAPGKERELVASISSGGRTYYADSVKGRFTISRDNAKNTVYLQMNSLKPEDTAVYYCAKRAVLARGDYWGQGTQVTVSS | low polyreactivity |
| QVQLVESGGGLVQAGGSLRLSCAASGSTFYTNAMGWYRQAPGKERELVASITDGGDSTHYADSVKGRFTISRDNAKNTVYLQMNSLKPEDTAVYYCAVDYQYFQEYDSWGQGTQVTVSS | low polyreactivity |
| QVQLVESGGGLVQAGGSLRLSCAASGSTFYTNAMGWYRQAPGKERELVAVITSSGVRTYYADSVKGRFTISRDNAKKTVYFQMNSLKPEDTAVYYCAAEARVGDHFQILDYWGQGTQVTVSS | high polyreactivity |
| QVQLVESGGGLVQAGGSLRLSCAASGSTFYTNAMGWYRQAPGQERELVAAISASVGSTYYADSVKGRFTISRDYAKNSVYLQMNSLKPEDTAVYYCAADVWASRRYDYWGQGTQVTVSS | low polyreactivity |
| QVQLVESGGGLVQAGGSLRLSCAASGSTFYTYAMGWYRKAPGKERELDAAISWSGGSTYYADSVKGRFTISRDNAKNTVYLQMNSLKPEDTAVYYCAADRPYAGRYWKGYHSALYDYWGQGTQVTVSS | low polyreactivity |
| QVQLVESGGGLVQAGGSLRLSCAASGSTFYTYAMGWYRQAPGKERELVAAISNRGGSTRYADSVKGRFTISRDNAKNTVYLQMNSLKPEDTAVYYCAARVTQTGYYWGQGTQVTVSS | high polyreactivity |
| QVQLVESGGGLVQAGGSLRLSCAASGSTFYTYAMGWYRQAPGKERELVAAISWSGGSTYYADSVKGRFTISRDIAKNTVYLQMNSLKPEDTAVYYCAKKQVTTDVSSETFVLEMDYWGQGTQVTVSS | low polyreactivity |
| QVQLVESGGGLVQAGGSLRLSCAASGSTFYTYAMGWYRQATGKERELVAAISWSGGSTYYADSVKGRFTISRDNAKNTVYLQMNSLKPEDPAVYYCAADRPYAGRYWKGYHSALYDYWGQGSQVTVSS | low polyreactivity |
| QVQLVESGGGLVQAGGSLRLSCAASGSTFYTYTMGWYRQAPGKERELVAAISTRGGSTYYADSVKGRFTISRDNAKNTVYLQMNCLKPEDTAVYYCAAVYRRGSGYDYWGQGNQVTVSS | high polyreactivity |
| QVQLVESGGGLVQAGGSLRLSCAASGSTFYVNAMGWYRQAPGKERELVAAISSGGSTYYADSVKGRFTISRDNAKNTVYLQMNSLKPEDTAVYYCAAASPWGSDYDYWGQGTQVTVSS | low polyreactivity |
| QVQLVESGGGLVQAGGSLRLSCAASGSTFYVNDMGWYRQAPGKERELVAAITWGVGDTYYADSVKGRFTISRDNAKNTVYLQMNSLKPEDTAVYYCAADTSYYYAYTQMEYWGQGTQVTVSS | low polyreactivity |
| QVQLVESGGGLVQAGGSLRLSCAASGSTFYVNTMGGSRQAPGKERELVAAISGSGGSTYYADSVKGRFTISRDNAKNTVYLQMNCLKPEETAVYYCAAYGWRLWYRFNYWGQGTQVTVSS | high polyreactivity |
| QVQLVESGGGLVQAGGSLRLSCAASGSTFYVNTMGWYRQAPGKERELVAAINWRGGSTYYADSVKWRFTISRDNAKNTVYLQMNSLKPEDTAVYYCAAYGFYRYVTAYIYDMDYWGQGTQVSVSS | low polyreactivity |
| QVQLVESGGGLVQAGGSLRLSCAASGSTFYVYAMGWYRQAPRKERELVAAIDGSTGSTYYADSVKGRFTISRDNAKNTVYLQMNSLKPEDTAVYYCNADYYYEVDSWGQGTQVTVSS | low polyreactivity |
| QVQLVESGGGLVQAGGSLRLSCAASGSTFYWYTMGWYRQAPGKERELVATITSSGGRTYYADSVKGRFTISRDNAKNTVYLQMNSLKPEDTAVYYCAAYRRNSRWELDYWGQGTQVTVSS | high polyreactivity |
| QVQLVESGGGLVQAGGSLRLSCAASGSTFYYNAMGWYRQAPGKEREFVAAISSRGGSTYYADSVKGRFTISRDNAKTTVYLQMNSLKPEDTAVYYCAAKYRHRYDWGQGTQVTVSS | high polyreactivity |
| QVQLVESGGGLVQAGGSLRLSCAASGSTFYYNAMGWYRQAPGKEREFVAGITSSGAGTYYADSVKGRFTISRDNAKNTVYLQMNSLKPEDTAVYYCAAVYRWEGRTYRYGYWGQGTQVTVSS | high polyreactivity |

| Sequence | polyreactivity (PSR sort gate) |
| --- | --- |
| QVQLVESGGGLVQAGGSLRLSCAASGSTFYYNAMGWYRQAPGKERELDARISRSGGSTYADSVKGRFTISRDNAKNTVYLQMNSLKPEDTAVYYCNADAYGTPEFTSYAVRYDYWGQGTQVTVSS | low polyreactivity |
| QVQLVESGGGLVQAGGSLRLSCAASGSTFYYNAMGWYRQAPGKERELVAAIRTSGGRTYYADSVKGRFTISRDNAKNTVYLQMNSLKPEDTAVYYCAADGTAVHYTYDYWGQGTQVTVSS | low polyreactivity |
| QVQLVESGGGLVQAGGSLRLSCAASGSTFYYNAMGWYRQAPGKERELVAAITWGGGSTYYADSVKGRFTISRDNAKNTVYLQMNSLKPEDTAVYYCNAEDYVWYYYYYDIYDYWGQGTQVTVSS | high polyreactivity |
| QVQLVESGGGLVQAGGSLRLSCAASGSTFYYNAMGWYRQAPGKERELVATISGGGTTYYADSVKGRFTISRDNAKNSVYLQMISLKPEDTAVYYCATDWHIEYLYRKVHGRKHDYWGQGTQVTVSS | low polyreactivity |
| QVQLVESGGGLVQAGGSLRLSCAASGSTFYYNDMGWYRQAPGKERELVAAIRTSGSTNYADSVKGRFTISRDNAKNTVYLQMNSLKPEDTAVYYCNAVVRHWFQGWYGRGDDYWGQGTQVTVSS | low polyreactivity |
| QVQLVESGGGLVQAGGSLRLSCAASGSTFYYNVMGWYRQAPGKERELVAAITLSGGSTYADSVKGRFTISRDNAKNTVYLQMNSLKPEDTAVYYCAKKGRYGRWGYKFDYWGQGTQVTVSS | low polyreactivity |
| QVQLVESGGGLVQAGGSLRLSCAASGSTFYYYAMGWYRQAPGKERELVAAITNVTSTYYADSVKGRFTISRDNEKNTVYLMMNSLKPEDTAVYYCAAPDHCSEVTYDYWGQGTQVCVSS | low polyreactivity |
| QVQLVESGGGLVQAGGSLRLSCAASGSTFYYYSMGWNRQAPGKERELVAAISYRGGTTYYADSVKGRFTISRDNAKNTVYLQMNSLKPEDTAVYYCAAGVSWYRPGSYTGGYWGQGTQVTVSS | high polyreactivity |
| QVQLVESGGGLVQAGGSLRLSCAASGSTGLNAMGWYRQAPGKERELVAAITWSGGSTYYADSVKGRFTISRDNAKNTVYLQMNSLKPVDTAVYYCAAQYTWYKSRYGYWGQGTQVTVSS | high polyreactivity |
| QVQLVESGGGLVQAGGSLRLSCAASGSTHVYAMGWYRQAPGKERELVAAISLNTGSTYYADSVKGRFTISRDNAKNTVYLQMNSLKPEDTAVYRLNYWGQGTQVTVSS | low polyreactivity |
| QVQLVESGGGLVQAGGSLRLSCAASGSTIDYYAMGWYRQAPGKERELVAAISWSGGSTYYADSVKGRFTISRDNAKNTVYLQMYSLKTEDTAVYYCAAYSAFYTGSYNGWSDYDYWGQGTQVTVSS | low polyreactivity |
| QVQLVESGGGLVQAGGSLRLSCAASGSTIEDYAMGWYRQAPGKERELVAAITSGDSTNYADSVKGRFTISRDNAKNTVYLQMISLKPEDTAVYYCFDLSNRYAVRYDYWGQGTQVTVSS | high polyreactivity |
| QVQLVESGGGLVQAGGSLRLSCAASGSTIEDYAMGWYRQAPGKERELVAAITSGDSTNYADSVKGRFTISRDNAKNTVYLQMNSLKPEDTAVYYCAARLRYSFWYWDDYWGQGTQVTVSS | high polyreactivity |
| QVQLVESGGGLVQAGGSLRLSCAASGSTIFLYDMGWYRQAPGKERELVAAITISGGSTYYADSVKGRFTISRDNAKNTVYLQMNSLKPEDTAVYDCNADYQWYLGGYDYWGQGTQVTVSS | high polyreactivity |
| QVQLVESGGGLVQAGGSLRLSCAASGSTIFSYAMGWYRQAPGKERELVAAITYRSSRTYYADSVKGRFTISRDNAKNTVYLQMNSLKPEDTAVYYCAAGYFSYRRYDYWGQGTQVTVSS | high polyreactivity |
| QVQLVESGGGLVQAGGSLRLSCAASGSTIGDNAMGWYRQAPGIERELGASMSWSGASTYYADSVKGRFTISRDNAKNTVYLQMNCLKPDDTAVYYCGVYYSYYSHLYHMLFYYWGQGTQVTVSS | low polyreactivity |
| QVQLVESGGGLVQAGGSLRLSCAASGSTILAYALGWYRPAPGKERELVAAIRRGGTSTYSADSLKGRFTISRDKAKKTVYLQINSLQPEDTAVYYCNKAYITKRGVSGSNDYWGQGTQVTVSS | low polyreactivity |
| QVQLVESGGGLVQAGGSLRLSCAASGSTILQNAMGWYRQAPGKERELVAAISRSGGSTYYADSVKGRFTISRDNAKNTVYLQMNSLKPEDTAVYYCARRYWPGSAYWIYDYWGQGTQVTVSS | high polyreactivity |
| QVQLVESGGGLVQAGGSLRLSCAASGSTIPSNAMGWYRQAPGKERELVASITYTDGTTRYADSVKGRFTISRDNAKNTVYLQMNSLKPEDTAVYYCNAVYYREGMDYWGQGTQVTVSS | low polyreactivity |
| QVQLVESGGGLVQAGGSLRLSCAASGSTIPSYALGWYRPAPGKERELGASITYSDGTTRYADSVKARFTISRDNAKNTVYLQMNSLKPEDTAVYYCNAVYYREGMDYWGQGTQVTVSS | low polyreactivity |
| QVQLVESGGGLVQAGGSLRLSCAASGSTIPSYAMGWYRQAPGKERELVASITYSDGTTRYADSVKGRFTISRDNAMNPVYFQMNSLKPEDSAVYYCNAVYYREGMDYWGQGTQVTVSS | low polyreactivity |
